Data taken from publication PMC4631479, “The structure of the GemC1 coiled coil and its interaction with the Geminin family of coiled-coil proteins” (Acta Crystallographica Section D: Biological Crystallography, 2015).

Target: the molecule itself
Test: SEC-MALS; Superdex 75 HR 10/30 with miniDAWN light-scattering and refractive-index detectors; 100 ul of purified tGemC1 dimer at ~2.0 mg/ml injected

B1: tGemC1^L123,130E (GemC1 coiled-coil domain variant, residues 64-146, L123E and L130E) (domain or fragment, human, UniProt A6NCL1 64-146, looked up)
chain: DSNFPLPDLCSWEEAQLSSQLYRNKQLQDTLVQKEEELARLHEENNHLRQYLNSALVKCEEEKAKKELSSDEFSKAYGKFRKG
notes: Geminin coiled-coil domain-containing protein 1 (GemC1), human, UniProt A6NCL1, residues 64-146, with L123E and L130E; codon-optimized synthetic gene; The His tag is called cleavable; also called tGemC1 homodimer; tGemC1-tGemC1; source: expressed from pETNKI-His-3CLIC-kan, purified (IMAC, size-exclusion chromatography)
stoichiometry N: 2
